Data: patent publication US20110192416A1

Target: human hair (keratin-containing material) (human)
Test: Hair adherence test: His-tagged protein incubated with cut human hair, detected with anti-poly-histidine peroxidase conjugate and TMB; buffer background 0.05

- absorption at 405 nm: 0.12 A405
Substance: comparable protein YaaD of B. subtilis with a His-tag (from UniProt P37527 1-294)
